In the RNAGym collection of RNA variant scans (doi:10.1021/acssynbio.7b00057):

B1: Pistol ribozyme (parent)
chain: GGGUCGUUGUUCCAUAAUCGCGUGGAUAUGGCACGCAAGUUUCUACCGGGCACCGUAAAUGUCCGACUGGAGCCGUUCGGGCGGCUAUAAACAGACCUCAGGCCCGAAGCGUGGCGGCACCUGCCGCCGGUGGUAAAAAAGAUCGGAAGAGCACACGUCU

Variants of: B1
Test: aptazyme ON/OFF ratio, guanine; higher = stronger switching; co-transcriptional cleavage with and without guanine

Variant	aptazyme ON/OFF ratio
GGGUCGUUGAAGAAUAAUCGCGUGGAUAUGGCACGCAAGUUUCUACCGGGCACCGUAAAUGUCCGACUGGAGCCGUUCGGGCGGCUAUAAACAGACCUCAGGCCCGAAGCGUGGCGGCACCUGCCGCCGGUGGUAAAAAAGAUCGGAAGAGCACACGUCU	1.42
GGGUCGUUGAAGGAUAAUCGCGUGGAUAUGGCACGCAAGUUUCUACCGGGCACCGUAAAUGUCCGACUGGAGCCGUUCGGGCGGCUAUAAACAGACCUCAGGCCCGAAGCGUGGCGGCACCUGCCGCCGGUGGUAAAAAAGAUCGGAAGAGCACACGUCU	1.3
GGGUCGUUGAAGUAUAAUCGCGUGGAUAUGGCACGCAAGUUUCUACCGGGCACCGUAAAUGUCCGACUGGAGCCGUUCGGGCGGCUAUAAACAGACCUCAGGCCCGAAGCGUGGCGGCACCUGCCGCCGGUGGUAAAAAAGAUCGGAAGAGCACACGUCU	1.23
GGGUCGUUGACAGAUAAUCGCGUGGAUAUGGCACGCAAGUUUCUACCGGGCACCGUAAAUGUCCGACUGGAGCCGUUCGGGCGGCUAUAAACAGACCUCAGGCCCGAAGCGUGGCGGCACCUGCCGCCGGUGGUAAAAAAGAUCGGAAGAGCACACGUCU	1.28
GGGUCGUUGACAAAUAAUCGCGUGGAUAUGGCACGCAAGUUUCUACCGGGCACCGUAAAUGUCCGACUGGAGCCGUUCGGGCGGCUAUAAACAGACCUCAGGCCCGAAGCGUGGCGGCACCUGCCGCCGGUGGUAAAAAAGAUCGGAAGAGCACACGUCU	1.17
GGGUCGUUGACAUAUAAUCGCGUGGAUAUGGCACGCAAGUUUCUACCGGGCACCGUAAAUGUCCGACUGGAGCCGUUCGGGCGGCUAUAAACAGACCUCAGGCCCGAAGCGUGGCGGCACCUGCCGCCGGUGGUAAAAAAGAUCGGAAGAGCACACGUCU	1.23
GGGUCGUUGAAUGAUAAUCGCGUGGAUAUGGCACGCAAGUUUCUACCGGGCACCGUAAAUGUCCGACUGGAGCCGUUCGGGCGGCUAUAAACAGACCUCAGGCCCGAAGCGUGGCGGCACCUGCCGCCGGUGGUAAAAAAGAUCGGAAGAGCACACGUCU	1.35
GGGUCGUUGAAUUAUAAUCGCGUGGAUAUGGCACGCAAGUUUCUACCGGGCACCGUAAAUGUCCGACUGGAGCCGUUCGGGCGGCUAUAAACAGACCUCAGGCCCGAAGCGUGGCGGCACCUGCCGCCGGUGGUAAAAAAGAUCGGAAGAGCACACGUCU	1.69
GGGUCGUUGAAUAAUAAUCGCGUGGAUAUGGCACGCAAGUUUCUACCGGGCACCGUAAAUGUCCGACUGGAGCCGUUCGGGCGGCUAUAAACAGACCUCAGGCCCGAAGCGUGGCGGCACCUGCCGCCGGUGGUAAAAAAGAUCGGAAGAGCACACGUCU	1.54
GGGUCGUUGAACCAUAAUCGCGUGGAUAUGGCACGCAAGUUUCUACCGGGCACCGUAAAUGUCCGACUGGAGCCGUUCGGGCGGCUAUAAACAGACCUCAGGCCCGAAGCGUGGCGGCACCUGCCGCCGGUGGUAAAAAAGAUCGGAAGAGCACACGUCU	1.73
GGGUCGUUGAGCCAUAAUCGCGUGGAUAUGGCACGCAAGUUUCUACCGGGCACCGUAAAUGUCCGACUGGAGCCGUUCGGGCGGCUAUAAACAGACCUCAGGCCCGAAGCGUGGCGGCACCUGCCGCCGGUGGUAAAAAAGAUCGGAAGAGCACACGUCU	2.01
GGGUCGUUGACCCAUAAUCGCGUGGAUAUGGCACGCAAGUUUCUACCGGGCACCGUAAAUGUCCGACUGGAGCCGUUCGGGCGGCUAUAAACAGACCUCAGGCCCGAAGCGUGGCGGCACCUGCCGCCGGUGGUAAAAAAGAUCGGAAGAGCACACGUCU	1.05
GGGUCGUUGACACAUAAUCGCGUGGAUAUGGCACGCAAGUUUCUACCGGGCACCGUAAAUGUCCGACUGGAGCCGUUCGGGCGGCUAUAAACAGACCUCAGGCCCGAAGCGUGGCGGCACCUGCCGCCGGUGGUAAAAAAGAUCGGAAGAGCACACGUCU	1.16
GGGUCGUUGACUCAUAAUCGCGUGGAUAUGGCACGCAAGUUUCUACCGGGCACCGUAAAUGUCCGACUGGAGCCGUUCGGGCGGCUAUAAACAGACCUCAGGCCCGAAGCGUGGCGGCACCUGCCGCCGGUGGUAAAAAAGAUCGGAAGAGCACACGUCU	1.04
GGGUCGUUGACGCAUAAUCGCGUGGAUAUGGCACGCAAGUUUCUACCGGGCACCGUAAAUGUCCGACUGGAGCCGUUCGGGCGGCUAUAAACAGACCUCAGGCCCGAAGCGUGGCGGCACCUGCCGCCGGUGGUAAAAAAGAUCGGAAGAGCACACGUCU	1.15
GGGUCGUUGACGAAUAAUCGCGUGGAUAUGGCACGCAAGUUUCUACCGGGCACCGUAAAUGUCCGACUGGAGCCGUUCGGGCGGCUAUAAACAGACCUCAGGCCCGAAGCGUGGCGGCACCUGCCGCCGGUGGUAAAAAAGAUCGGAAGAGCACACGUCU	1.15
GGGUCGUUGACGUAUAAUCGCGUGGAUAUGGCACGCAAGUUUCUACCGGGCACCGUAAAUGUCCGACUGGAGCCGUUCGGGCGGCUAUAAACAGACCUCAGGCCCGAAGCGUGGCGGCACCUGCCGCCGGUGGUAAAAAAGAUCGGAAGAGCACACGUCU	1.23
GGGUCGUUGACGGAUAAUCGCGUGGAUAUGGCACGCAAGUUUCUACCGGGCACCGUAAAUGUCCGACUGGAGCCGUUCGGGCGGCUAUAAACAGACCUCAGGCCCGAAGCGUGGCGGCACCUGCCGCCGGUGGUAAAAAAGAUCGGAAGAGCACACGUCU	1.29

Variant	aptazyme ON/OFF ratio
GGGUCGUUGAACUAUAAUCGCGUGGAUAUGGCACGCAAGUUUCUACCGGGCACCGUAAAUGUCCGACUGGAGCCGUUCGGGCGGCUAUAAACAGACCUCAGGCCCGAAGCGUGGCGGCACCUGCCGCCGGUGGUAAAAAAGAUCGGAAGAGCACACGUCU	1.35
GGGUCGUUGAACGAUAAUCGCGUGGAUAUGGCACGCAAGUUUCUACCGGGCACCGUAAAUGUCCGACUGGAGCCGUUCGGGCGGCUAUAAACAGACCUCAGGCCCGAAGCGUGGCGGCACCUGCCGCCGGUGGUAAAAAAGAUCGGAAGAGCACACGUCU	1.12
GGGUCGUUGAACAAUAAUCGCGUGGAUAUGGCACGCAAGUUUCUACCGGGCACCGUAAAUGUCCGACUGGAGCCGUUCGGGCGGCUAUAAACAGACCUCAGGCCCGAAGCGUGGCGGCACCUGCCGCCGGUGGUAAAAAAGAUCGGAAGAGCACACGUCU	1.31
GGGUCGUUGAAUCAUAAUCGCGUGGAUAUGGCACGCAAGUUUCUACCGGGCACCGUAAAUGUCCGACUGGAGCCGUUCGGGCGGCUAUAAACAGACCUCAGGCCCGAAGCGUGGCGGCACCUGCCGCCGGUGGUAAAAAAGAUCGGAAGAGCACACGUCU	1.64
GGGUCGUUGAAACAUAAUCGCGUGGAUAUGGCACGCAAGUUUCUACCGGGCACCGUAAAUGUCCGACUGGAGCCGUUCGGGCGGCUAUAAACAGACCUCAGGCCCGAAGCGUGGCGGCACCUGCCGCCGGUGGUAAAAAAGAUCGGAAGAGCACACGUCU	1.18
GGGUCGUUGAAGCAUAAUCGCGUGGAUAUGGCACGCAAGUUUCUACCGGGCACCGUAAAUGUCCGACUGGAGCCGUUCGGGCGGCUAUAAACAGACCUCAGGCCCGAAGCGUGGCGGCACCUGCCGCCGGUGGUAAAAAAGAUCGGAAGAGCACACGUCU	1.83
GGGUCGUUGAUCGAUAAUCGCGUGGAUAUGGCACGCAAGUUUCUACCGGGCACCGUAAAUGUCCGACUGGAGCCGUUCGGGCGGCUAUAAACAGACCUCAGGCCCGAAGCGUGGCGGCACCUGCCGCCGGUGGUAAAAAAGAUCGGAAGAGCACACGUCU	1.1
GGGUCGUUGAUCAAUAAUCGCGUGGAUAUGGCACGCAAGUUUCUACCGGGCACCGUAAAUGUCCGACUGGAGCCGUUCGGGCGGCUAUAAACAGACCUCAGGCCCGAAGCGUGGCGGCACCUGCCGCCGGUGGUAAAAAAGAUCGGAAGAGCACACGUCU	1.11
GGGUCGUUGAUCUAUAAUCGCGUGGAUAUGGCACGCAAGUUUCUACCGGGCACCGUAAAUGUCCGACUGGAGCCGUUCGGGCGGCUAUAAACAGACCUCAGGCCCGAAGCGUGGCGGCACCUGCCGCCGGUGGUAAAAAAGAUCGGAAGAGCACACGUCU	1.08
GGGUCGUUGAAAUAUAAUCGCGUGGAUAUGGCACGCAAGUUUCUACCGGGCACCGUAAAUGUCCGACUGGAGCCGUUCGGGCGGCUAUAAACAGACCUCAGGCCCGAAGCGUGGCGGCACCUGCCGCCGGUGGUAAAAAAGAUCGGAAGAGCACACGUCU	1.47
GGGUCGUUGAAAAAUAAUCGCGUGGAUAUGGCACGCAAGUUUCUACCGGGCACCGUAAAUGUCCGACUGGAGCCGUUCGGGCGGCUAUAAACAGACCUCAGGCCCGAAGCGUGGCGGCACCUGCCGCCGGUGGUAAAAAAGAUCGGAAGAGCACACGUCU	1.39
GGGUCGUUGAAAGAUAAUCGCGUGGAUAUGGCACGCAAGUUUCUACCGGGCACCGUAAAUGUCCGACUGGAGCCGUUCGGGCGGCUAUAAACAGACCUCAGGCCCGAAGCGUGGCGGCACCUGCCGCCGGUGGUAAAAAAGAUCGGAAGAGCACACGUCU	1.18
GGGUCGUUGACUUAUAAUCGCGUGGAUAUGGCACGCAAGUUUCUACCGGGCACCGUAAAUGUCCGACUGGAGCCGUUCGGGCGGCUAUAAACAGACCUCAGGCCCGAAGCGUGGCGGCACCUGCCGCCGGUGGUAAAAAAGAUCGGAAGAGCACACGUCU	1.03
GGGUCGUUGACUAAUAAUCGCGUGGAUAUGGCACGCAAGUUUCUACCGGGCACCGUAAAUGUCCGACUGGAGCCGUUCGGGCGGCUAUAAACAGACCUCAGGCCCGAAGCGUGGCGGCACCUGCCGCCGGUGGUAAAAAAGAUCGGAAGAGCACACGUCU	1.06
GGGUCGUUGACUGAUAAUCGCGUGGAUAUGGCACGCAAGUUUCUACCGGGCACCGUAAAUGUCCGACUGGAGCCGUUCGGGCGGCUAUAAACAGACCUCAGGCCCGAAGCGUGGCGGCACCUGCCGCCGGUGGUAAAAAAGAUCGGAAGAGCACACGUCU	1.08
GGGUCGUUGACCAAUAAUCGCGUGGAUAUGGCACGCAAGUUUCUACCGGGCACCGUAAAUGUCCGACUGGAGCCGUUCGGGCGGCUAUAAACAGACCUCAGGCCCGAAGCGUGGCGGCACCUGCCGCCGGUGGUAAAAAAGAUCGGAAGAGCACACGUCU	1.02
GGGUCGUUGACCUAUAAUCGCGUGGAUAUGGCACGCAAGUUUCUACCGGGCACCGUAAAUGUCCGACUGGAGCCGUUCGGGCGGCUAUAAACAGACCUCAGGCCCGAAGCGUGGCGGCACCUGCCGCCGGUGGUAAAAAAGAUCGGAAGAGCACACGUCU	1.01
GGGUCGUUGACCGAUAAUCGCGUGGAUAUGGCACGCAAGUUUCUACCGGGCACCGUAAAUGUCCGACUGGAGCCGUUCGGGCGGCUAUAAACAGACCUCAGGCCCGAAGCGUGGCGGCACCUGCCGCCGGUGGUAAAAAAGAUCGGAAGAGCACACGUCU	1.04
